This is an account of results in publication PMC6902002, “Recognition and processing of branched DNA substrates by Slx1–Slx4 nuclease”.

The target in the series is T1, Tt-Slx1 E79Q-Slx4CCD3 (Thielavia terrestris, UniProt G2QV68;G2RCY5 1-324;834-936, E79Q).
T1 sequence 1: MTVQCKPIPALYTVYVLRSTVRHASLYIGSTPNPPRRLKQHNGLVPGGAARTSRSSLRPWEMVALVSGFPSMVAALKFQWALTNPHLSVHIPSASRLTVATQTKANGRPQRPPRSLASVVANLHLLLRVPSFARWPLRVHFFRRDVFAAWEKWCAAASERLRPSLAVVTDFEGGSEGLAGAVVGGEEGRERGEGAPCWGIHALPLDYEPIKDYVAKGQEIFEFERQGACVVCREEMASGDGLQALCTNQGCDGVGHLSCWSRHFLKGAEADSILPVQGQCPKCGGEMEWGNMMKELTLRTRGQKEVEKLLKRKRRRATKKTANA
T1 sequence 2: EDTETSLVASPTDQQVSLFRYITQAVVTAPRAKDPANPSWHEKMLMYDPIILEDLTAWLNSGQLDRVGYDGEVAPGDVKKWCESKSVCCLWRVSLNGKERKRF
Kind of series: X-ray crystallography; Zn2+ in RING domain; 0.2 M CaCl2, 5 mM EDTA, pH 6.0; 2.7 A; Fluorescence anisotropy: 20 mM HEPES pH 7.5, 2.5 mM CaCl2, 100 mM NaCl, 0.1 mg/ml BSA, 25 C; 25 nM DNA, 0-500 nM protein. The note with it: protein: recombinant; tags: N-terminal 6xHis on Slx1; Slx4CCD3 untagged; chain copies: 2;2; self-annealed splayed arm; single G-A mismatch and unpaired bases in crystal.

B1: self-annealing splayed-arm crystallization DNA (structured_DNA)
DNA: CAATCGGCAATGACCTTTGGTCATTCGGCAGAT
In the case of B1, the binding result was “binds”.
